The target in assay [1] is T1, Recombinant PCNA (proliferating cell nuclear antigen) (human, UniProt P12004 1-261). Kind of assay: SPR; 500 nM caPep.
The target in assay [2] is T1, Recombinant PCNA (proliferating cell …). The assay is described as follows: SPR; 1000 nM caPep. Background: In SPR one partner is held on a chip, and binding of the other changes the refractive index at the surface.
Assay [3] shares this target. Kind of assay: SPR; 0 nM caPep.

A word on the Kd: it is the constant that tells how readily two partners part at equilibrium.

T1 sequence (P12004 whole entry): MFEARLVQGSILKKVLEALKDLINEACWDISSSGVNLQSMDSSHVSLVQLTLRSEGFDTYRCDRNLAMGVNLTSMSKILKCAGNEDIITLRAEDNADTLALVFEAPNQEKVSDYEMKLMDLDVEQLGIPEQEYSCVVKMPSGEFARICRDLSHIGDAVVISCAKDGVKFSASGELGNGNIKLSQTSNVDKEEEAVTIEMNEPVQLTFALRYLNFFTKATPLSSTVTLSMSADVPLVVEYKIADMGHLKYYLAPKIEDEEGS

B1: FEN1 peptide containing the PIP-box (peptide)
peptide: SKSRQGSTQGRLDDFF
B1: the values for the Kd in assay [1], in assay [2] and in assay [3] were 3.33 µM, 250 µM and 84.6 nM, respectively.

The values are drawn from paper PMC3984256 (2014).
